Measurements from IntAct's records for PubMed 17290217.

B1: Phosphatidylinositol 4-phosphate 5-kinase type-1 gamma (Mus musculus), O70161 (parent)
chain: MELEVPDEAESAEAGAVTAEAAWSAESGAAAGMTQKKAGLAEAPLVTGQPGPGHGKKLGHRGVDASGETTYKKTTSSTLKGAIQLGIGYTVGNLSSKPERDVLMQDFYVVESIFFPSEGSNLTPAHHFQDFRFKTYAPVAFRYFRELFGIRPDDYLYSLCNEPLIELSNPGASGSVFYVTSDDEFIIKTVMHKEAEFLQKLLPGYYMNLNQNPRTLLPKFYGLYCVQSGGKNIRVVVMNNVLPRVVKMHLKFDLKGSTYKRRASKKEKEKSLPTYKDLDFMQDMPEGLLLDSDTFGALVKTLQRDCLVLESFKIMDYSLLLGVHNIDQQERERQAEGAQSKADEKRPVAQKALYSTAMESIQGGAARGEAIETDDTMGGIPAVNGRGERLLLHIGIIDILQSYRFIKKLEHTWKALVHDGDTVSVHRPSFYAERFFKFMSSTVFRKSSSLKSSPSKKGRGALLAVKPLGPTAAFSASQIPSEREDVQYDLRGARSYPTLEDEGRPDLLPCTPPSFEEATTASIATTLSSTSLSIPERSPSDTSEQPRYRRRTQSSGQDGRPQEEPHAEDLQKITVQVEPVCGVGVVPKEEGAGVEVPPCGASAAASVEIDAASQASEPASQASDEEDAPSTDIYFPTDERSWVYSPLHYSARPASDGESDT

Variants of: B1
Details: with Ap2b1, Q9DBG3-1
Ap2b1, Q9DBG3-1, sequence (Q9DBG3 whole entry): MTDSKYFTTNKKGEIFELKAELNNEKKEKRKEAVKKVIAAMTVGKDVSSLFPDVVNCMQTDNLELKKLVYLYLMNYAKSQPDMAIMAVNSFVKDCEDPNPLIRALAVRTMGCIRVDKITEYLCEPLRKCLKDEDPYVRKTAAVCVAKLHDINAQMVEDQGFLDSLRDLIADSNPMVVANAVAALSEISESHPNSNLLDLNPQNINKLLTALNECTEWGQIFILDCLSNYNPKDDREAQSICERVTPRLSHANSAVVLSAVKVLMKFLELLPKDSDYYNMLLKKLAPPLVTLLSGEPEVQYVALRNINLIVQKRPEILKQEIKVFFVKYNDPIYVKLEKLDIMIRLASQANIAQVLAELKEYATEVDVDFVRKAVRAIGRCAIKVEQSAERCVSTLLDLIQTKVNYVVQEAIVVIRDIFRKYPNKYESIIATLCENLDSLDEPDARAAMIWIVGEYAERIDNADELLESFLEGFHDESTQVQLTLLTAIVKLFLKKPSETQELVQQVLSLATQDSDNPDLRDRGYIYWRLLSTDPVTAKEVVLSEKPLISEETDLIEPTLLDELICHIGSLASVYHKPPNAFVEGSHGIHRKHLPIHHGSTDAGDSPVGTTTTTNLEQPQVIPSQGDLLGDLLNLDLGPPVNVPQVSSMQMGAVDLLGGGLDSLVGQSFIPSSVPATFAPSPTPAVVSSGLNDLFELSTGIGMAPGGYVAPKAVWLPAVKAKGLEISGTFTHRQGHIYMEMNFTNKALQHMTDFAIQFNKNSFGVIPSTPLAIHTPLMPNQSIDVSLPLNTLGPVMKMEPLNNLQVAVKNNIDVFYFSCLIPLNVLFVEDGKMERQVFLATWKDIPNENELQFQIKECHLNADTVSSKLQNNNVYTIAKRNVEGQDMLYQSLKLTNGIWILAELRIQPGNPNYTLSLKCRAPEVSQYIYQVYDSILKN

Variant	effect of a mutation on the interaction
D277A	disrupting interaction

Variants of: B1
Details: with Ap2b1, Q9DBG3-2
Ap2b1, Q9DBG3-2, sequence (Q9DBG3 other isoform, or with tags, fused parts or gaps): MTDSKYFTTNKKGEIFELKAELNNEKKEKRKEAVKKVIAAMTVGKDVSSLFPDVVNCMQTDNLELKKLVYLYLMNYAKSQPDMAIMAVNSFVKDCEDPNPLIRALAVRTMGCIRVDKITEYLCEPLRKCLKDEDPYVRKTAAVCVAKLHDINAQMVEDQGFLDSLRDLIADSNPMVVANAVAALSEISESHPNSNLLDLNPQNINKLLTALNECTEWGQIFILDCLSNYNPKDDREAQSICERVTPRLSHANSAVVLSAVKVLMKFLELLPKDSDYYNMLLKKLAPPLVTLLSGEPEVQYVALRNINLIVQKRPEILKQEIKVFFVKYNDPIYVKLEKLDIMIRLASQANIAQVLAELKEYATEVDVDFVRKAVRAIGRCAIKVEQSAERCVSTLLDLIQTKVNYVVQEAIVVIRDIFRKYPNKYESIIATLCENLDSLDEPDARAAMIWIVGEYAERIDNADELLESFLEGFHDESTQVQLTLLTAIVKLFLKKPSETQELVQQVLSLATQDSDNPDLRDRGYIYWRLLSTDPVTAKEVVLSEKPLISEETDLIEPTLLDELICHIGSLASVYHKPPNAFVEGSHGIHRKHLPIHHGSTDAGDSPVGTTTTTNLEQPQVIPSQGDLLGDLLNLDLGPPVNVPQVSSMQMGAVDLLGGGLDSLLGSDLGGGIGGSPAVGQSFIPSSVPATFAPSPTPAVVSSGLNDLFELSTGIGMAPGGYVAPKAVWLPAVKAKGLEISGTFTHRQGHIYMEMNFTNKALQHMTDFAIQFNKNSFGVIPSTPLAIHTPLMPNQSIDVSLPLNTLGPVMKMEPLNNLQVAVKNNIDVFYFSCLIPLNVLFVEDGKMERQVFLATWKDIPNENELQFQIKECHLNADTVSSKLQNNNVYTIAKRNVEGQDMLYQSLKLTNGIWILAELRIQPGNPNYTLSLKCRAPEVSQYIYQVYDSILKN

Variant	effect of a mutation on the interaction
S645E	disrupting interaction

Variants of: B1
Details: with Ap2b1, Q9DBG3-1
Remark: another data set of the same source

Variant	effect of a mutation on the interaction
S645E	disrupting interaction
